# Results from the DeepSol protein solubility set.
# Experiment: soluble on expression in E. coli; label from the status in PepcDB or PDB records
row,Sequence,soluble on expression in E. coli
1,FGVWVLVPRSFPRCVWFQRSMAVVIRLQGLPIVAGTMDIRHFFSGLTIPDGGVHIVGGELGEAFIVFATDEDARLGMMRTGGTIKGSKVTLLLSSKTEMQNMIELSRRRFETANLDIPPANASRSGPPPSSGMSSRVNLPTTVSNFNNPSPSVVTATTSVHESNKNIQTFSTASVGTAPPNMGASFGSPTFSSTVPSTASPMNTVPPPPIPPIPAMPSLPPMPSIPPIPVPPPVPTLPPVPPVPPIPPVPSVPPMTPLPPMSGMPPLNPPPVAPLPAGMNGSGAPMNLNNNLNPMFLGPLNPVNPIQMNSQSSVKPLPINPDDLYVSVHGMPFSAMENDVRDFFHGLRVDAVHLLKDHVGRNNGNGLVKFLSPQDTFEALKRNRMLMIQRYVEVSPATERQWVAAGGHITFKQNMGPSGQTHPPPQTLPRSKSPSGQKRSRSRSPHEAGFCVYLKGLPFEAENKHVIDFFKKLDIVEDSIYIAYGPNGKATGEGFVEFRNEADYKAALCRHKQYMGNRFIQVHPITKKGMLEKIDMIRKRLQNFSYDQREMILNPEGDVNSAKVCAHITNIPFSITKMDVLQFLEGIPVDENAVHVLVDNNGQGLGQALVQFKNEDDARKSERLHRKKLNGREAFVHVVTLEDMREIEKNPPAQGKKGLKMPVPGNPAVPGMPNAGLPGVGLPSAGLPGAGLPSTGLPGSAITSAGLPGAGMPSAGIPSAGGEEHAFLTVGSKEANNGPPFNFPGNFGGSNAFGPPIPPPGLGGGAFGDARPGMPSVGNSGLPGLGLDVPGFGGGPNNLSGPSGFGGGPQNFGNGPGSLGGPPGFGSGPPGLGSAPGHLGGPPAFGPGPGPGPGPGPIHIGGPPGFASSSGKPGPTVIKVQNMPFTVSIDEILDFFYGYQVIPGSVCLKYNEKGMPTGEAMVAFESRDEATAAVIDLNDRPIGSRKVKLVLG,soluble
2,MERILEKVRAKSEIPVYDKSIENVLSAILTTNDFWKIVDLSEEPLPLVADIIRILEEEGLVKISNGIEFTEKGNEFIKSYGIGAKDNSVCECCEGRGVSLKNYQDLLERFKEIVKNRPMPKHEYDQGFVTPECTISRIALMNSRGDLFNKDVLVLGDDDLTSIALMLSNLPKKIVVVDIDDRLINFIKEVAEQLNYKNIEVITLDLRKPLPEKYSRAFDTFITDPPETVYAVKTFIGRGISALKGERRAGYFGITRRESSLDKWREIQRTLINDFNVVITDIIRNFNHYVNWGYEEETRAWKLAPVKKKPEDIWYKSYMFRIETLKDSRGFEEEVDVGDELYNDAESSTT,not soluble
3,MTSEHRSASVTPRHISFFNIPGHGHVNPSLGIVQELVARGHRVSYAITDEFAAQVKAAGATPVVYDSILPKESNPEESWPEDQESAMGLFLDEAVRVLPQLEDAYADDRPDLIVYDIASWPAPVLGRKWDIPFVQLSPTFVAYEGFEEDVPAVQDPTADRGEEAAAPAGTGDAEEGAEAEDGLVRFFTRLSAFLEEHGVDTPATEFLIAPNRCIVALPRTFQIKGDTVGDNYTFVGPTYGDRSHQGTWEGPGDGRPVLLIALGSAFTDHLDFYRTCLSAVDGLDWHVVLSVGRFVDPADLGEVPPNVEVHQWVPQLDILTKASAFITHAGMGSTMEALSNAVPMVAVPQIAEQTMNAERIVELGLGRHIPRDQVTAEKLREAVLAVASDPGVAERLAAVRQEIREAGGARAAADILEGILAEAG,soluble
4,MKEKEKIYRHLTEEEISVLEGNYCQCADWTMVEVADGFDANRCLHVMFSGQIRIGSTRGSHLLPGGLHVPTGINIARLHNCIVGDEVVIFHVNSYLANYRIGDYTRIENIDTIAVTESTSFGNGVEVTVLNETGGREVTITDNLTAQTAYLMAMYRHDKVLTESLAAMARAYAESRRSDMGAIGSHVVIHGCNTIENVCIGDYTEITGASHLCNGSINSKKEAPVSVGYNVVCRDFILCSGSSVTDGATVSHCFVGQGTHLGHLFSAHDSLFFANCQGENGEACAVFAGPYTVSMHK,not soluble
5,MGEREGRVDSLLDTLYNLSEEKEAFFITQKMKKLFSVKLSKSKVILVAACLLLAGSGTAYAAHELTKQSVSVSINGKKKHIRTHANTVGDLLETLDIKTRDEDKITPAKQTKITADMDVVYEAAKPVKLTINGEEKTLWSTAKTVGALLDEQDVDVKEQDQIDPAIDTDISKDMKINIEPAFQVTVNDAGKQKKIWTTSTTVADFLKQQKMNIKDEDKIKPALDAKLTKGKADITITRIEKVTDVVEEKIAFDVKKQEDASLEKGKEKVVQKGKEGKLKKHFEVVKENGKEVSRELVKEETAEQSKDKVIAVGTKQSSPKFETVSASGDSKTVVSRSNESTGKVMTVSSTAYTASCSGCSGHTATGVNLKNNPNAKVIAVDPNVIPLGSKVHVEGYGYAIAADTGSAIKGNKIDVFFPEKSSAYRWGNKTVKIKILN,soluble
